From patent US20190338035A1

How the values were obtained:
[1] = biological target: WT H3.3 26-35 peptide/HLA-A*02:01 complex on T2 cells (human); test: flow cytometry, BB7.2 staining of T2 cells
[2] = biological target: HLA-A*02:01 on T2 cells without peptide loading (human); test: flow cytometry, BB7.2 staining of T2 cells
[3] = biological target: mutant histone K27M-H3.1 26-35 peptide/HLA-A*02:01 complex on T2 cells (human); test: flow cytometry, BB7.2 staining of T2 cells
[4] = biological target: control peptide mixture P20/HLA-A*02:01 complexes on T2 cells (human); test: flow cytometry, BB7.2 staining of T2 cells
[5] = biological target: mutant histone K27M-H3.3 26-35 peptide/HLA-A*02:01 complex on T2 cells (human); test: flow cytometry, BB7.2 staining of T2 cells
[6] = biological target: WT H3.1 26-35 peptide/HLA-A*02:01 complex on T2 cells (human); test: flow cytometry, BB7.2 staining of T2 cells
[7] = biological target: WT H3.3 26-35 peptide/HLA-A*02:01 complex on T2 cells (human); test: flow cytometry on T2 cells, anti-M13 + PE anti-mouse IgG, no phage (background control)
[8] = biological target: HLA-A*02:01 on T2 cells without peptide loading (human); test: as above
[9] = biological target: mutant histone K27M-H3.1 26-35 peptide/HLA-A*02:01 complex on T2 cells (human); test: as above
[10] = biological target: control peptide mixture P20/HLA-A*02:01 complexes on T2 cells (human); test: as above
[11] = biological target: mutant histone K27M-H3.3 26-35 peptide/HLA-A*02:01 complex on T2 cells (human); test: as above
[12] = biological target: WT H3.1 26-35 peptide/HLA-A*02:01 complex on T2 cells (human); test: as above
[13] = biological target: WT H3.3 26-35 peptide/HLA-A*02:01 complex on T2 cells (human); test: flow cytometry on T2 cells, secondary antibody only, no phage (background control)
[14] = biological target: HLA-A*02:01 on T2 cells without peptide loading (human); test: as above
[15] = biological target: mutant histone K27M-H3.1 26-35 peptide/HLA-A*02:01 complex on T2 cells (human); test: as above
[16] = biological target: control peptide mixture P20/HLA-A*02:01 complexes on T2 cells (human); test: as above
[17] = biological target: mutant histone K27M-H3.3 26-35 peptide/HLA-A*02:01 complex on T2 cells (human); test: as above
[18] = biological target: WT H3.1 26-35 peptide/HLA-A*02:01 complex on T2 cells (human); test: as above
[19] = biological target: WT H3.3 26-35 peptide/HLA-A*02:01 complex on T2 cells (human); test: flow cytometry, phage on T2 cells, anti-M13 + PE anti-mouse IgG
[20] = biological target: HLA-A*02:01 on T2 cells without peptide loading (human); test: as above
[21] = biological target: mutant histone K27M-H3.1 26-35 peptide/HLA-A*02:01 complex on T2 cells (human); test: as above
[22] = biological target: control peptide mixture P20/HLA-A*02:01 complexes on T2 cells (human); test: as above
[23] = biological target: mutant histone K27M-H3.3 26-35 peptide/HLA-A*02:01 complex on T2 cells (human); test: as above
[24] = biological target: WT H3.1 26-35 peptide/HLA-A*02:01 complex on T2 cells (human); test: as above

BB7.2 (antibody)
Median MFI (PE-A) [1]: 8650 MFI | Median MFI (PE-A) [2]: 3600 MFI | Median MFI (PE-A) [3]: 9530 MFI | Median MFI (PE-A) [4]: 11300 MFI | Median MFI (PE-A) [5]: 9650 MFI | Median MFI (PE-A) [6]: 8700 MFI

mouse anti-M13 mAb (antibody)
Median MFI (PE-A) [7]: 83 MFI | Median MFI (PE-A) [8]: 80 MFI | Median MFI (PE-A) [9]: 85 MFI | Median MFI (PE-A) [10]: 82 MFI | Median MFI (PE-A) [11]: 83 MFI | Median MFI (PE-A) [12]: 86 MFI

R-PE conjugated horse anti-mouse IgG (antibody)
Median MFI (PE-A) [13]: 83 MFI | Median MFI (PE-A) [14]: 82 MFI | Median MFI (PE-A) [15]: 85 MFI | Median MFI (PE-A) [16]: 82 MFI | Median MFI (PE-A) [17]: 83 MFI | Median MFI (PE-A) [18]: 83 MFI

negative control phage
Median MFI (PE-A) [19]: 128 MFI | Median MFI (PE-A) [20]: 122 MFI | Median MFI (PE-A) [21]: 130 MFI | Median MFI (PE-A) [22]: 124 MFI | Median MFI (PE-A) [23]: 133 MFI | Median MFI (PE-A) [24]: 131 MFI
